Experimental data from the DeepSol protein solubility set.

Assay: soluble on expression in E. coli; label from the status in PepcDB or PDB records

Sequence | soluble on expression in E. coli
MAHHHHHHMKQSKLVSRPSKTKKPKERKDRREDERYQREMDALIAREVARENVSMRSDTHKPQPKLLEEVQKDTSRRPKTPTSLSTAAVEKQAKIDKESGFQPVVNQRKERQQQQHQQQQTSAPKPMLVNEALERKLNHFFSNLNRKEKLTRLSQPEENPTASKGATIIVRKDIANARSWQQQQQ | soluble
MAHHHHHHMKRVNAIESNREEARERQLSVVRERAKHEAEKMAEELERRSGATLDEIGRTLEAKKRESSALQADRESRIWECEHTLEKIRTRKEDEESASERLRQAMQQPGQGLGLRQSATETKEQQLEMVQLDGARGREAVMRERHSIEAVRRTVRKERCRQRRQWIHQIKEMNAKFPEQVRPLAEERKKKYEQATAKEDAAERALAADVKMIEEYLPKPISLEDIPVNPEETDIIRHQFDEVFTQ | not soluble
MAHHHHHHMKRWDEKLTLALRRGSGSDDVTPNPVSEALRNLEETMESIKRRLSQLEKCVERQRVAINEVRTNTSPFDDLLTKTNGDIQSIQQQLEYVVISLERERGIVTDHTEQLRLFVRESTRRDGGRSGLSDSDPSFLFLLATWLYRPVVDFANGCYVLLSPLIGTLQSLSLFNPDVQVRQTESGVYLNNAQPSEDLLSRLQKGQLDPVLTSKT | not soluble
MAHHHHHHMKTFIGHFNNNALFSRNSFTNKSLRARKYTKNILSLKNLIYSSFFLYSTMNKVIGTHSGRFHTDEILATVMLKFLPEYKDAKIIRTRDQTKLDTCDIVVDVGGVYDHENKRYDHHQKEFEGTLDDKHTIRLSSAGLIYKHYGKEVLRKGFSITDEEKINVLYEKLYTSFIESVDALDNGINQYEGQPKYQINTTIQCRVNRFNPTFLEDDVDENERFMEAAKIVKQEFVHFVTYYSDVWYMAKSIVRESILDRFNFHKSGRVIYLQKYCPYTEHLYDLEQELNIQDEILYCIYSDRYNNFRCTAISKKNEPFVLRLPFPASFRGLKDEQLQTVSKIPGLTFVHYSGFTSAGENIESLVKLVEASLKENNIVY | not soluble
MAHHHHHHMLMCAGRKRFYFSLPSSRALKNIVKLPLLEREDKQKIIHIWKEKYQNDKYVVADHIHISKYEQIKNNCKNNSHFIIPQRNQNGYINFYSQFIDHKLLFITALEEYNKLRANSTPYVTLHFFDELKSREIILTKLNIVNNVITKNQAIKFYNYILSFYSDANYFPYVCKFNNDSRNFHYDAFIDKFKHLC | not soluble
MAHHHHHHMLQINAFKLVRATPFLLKRTGKPADTPDYKQVYLPYDAAPTERELERERRRFKQAHHGRMEHRKLVEVKEVPLNVYTYGKEGMSLPIAIFKDQKDPVIGPEWTYPGIYENKIAAQHWYTEELFDKESKEAFESPWQQQILDNQVKRRMAKVMFRMRQVNMKAVDLFQKERGSSRRSGGAGE | not soluble
MAHHHHHHMLRFRVRLPKGKEPVSMDLDGTTTWGSFVQSISSLTDVPCSQLRILSGFPPRPVEVGDGAASIASVLPGGGNVIVQVGEADVVKGKTEGRYVPPVDGKWHFVRRVCPSDNSCLFHAAAYVLRNKSRVDGPSLRKECADIVQAYPNVFNEKTILDRPNREYVDFIRNPNAWGGAIELMVLSFLTQTEIVALDLTSSNVLHFGEDNNYTVRAYVVFNGQHYDAIAMNPMFNSPQESEDQVLFSSTDAEVLNRARRFVADEAKKLRLR | soluble
MAHHHHHHMLRHFQRDVRGGSSSRRKLPRSVVGERSEEGSGTSKDPFVLSLREIPNRSGCYHCVEDCCECLWITELLAVCYGSLPTRRQVMTYRKRERCAKSILPPFVARIVRVAKISSQDTFYDLGCGNGSVLFQVALLTGARCVGVEINERNATVAQDAWRRLRPMIEARRGEPVEVEIICADFCSLMRDEKFFGSSPVIWAANLLMPGPVNHYLSERFRLLPKGSRVLCLEDLYPHGRSVAKFRDPDAFEMFAMTDFKWQTKSVEWCDTEGPFSMYTKRT | not soluble
MAHHHHHHMLRQCERLIVQLSQQVLEQEKDIHSLRAALHSSQNRRRRHRQRGGDEKRERAAAVSMAESFSVSTERRQHHHTHHITVKAPTQMTMTHEDSRLRLTLPSSMTPQVSPIHLSGDAGVDSATGPYPEAAVVAPHSPQSSGAGSAVPSPTRSVGKSSGEHGMAAALAFPSIVCDVSSFSDKTNVGLTPSAACDHPPSGESATADGLWASSLLSEPERSSSSSSLARHRRNTAQLTRNAQFETPRVNLDNQDAMSYLLCIFSSAKSTREADGGATAAMAEAGEAAPCGREHRGGAGVRSPNAPLQQQGEHVARRLFHLDPVDENEGSESGNEHSSGGAVSDYDRPAARRPFLPPLRDKRGDGDGSAPPNHKTCGAFDEDDAFLQERYARIVACALAAEFAASTTLVEEDEVEQQRGCKTGPRAPTAAWCRTTSRRDHSASATVSELLRLFTFQPATRHQPYSDGKGL | not soluble
MAHHHHHHMLRRHFQLFLRRTPLWLADDGSSLFERYTEIENSNERRMSALKACGMFDDEWIATEKVHGANFGIYSIEGEKTIRYAKRSGIMHPTEHFFGYHMLVPQLQQYITVTREMLCDKLQKKLHTVLINGELFGGKYDHPSLQKTRKTVMVAGKPRTISAVQTDSFPQYSPDLHFYAFDIKYKETNEAEYVTLTFDDATELFKRVPGLLYARAIIRGPMSKVAAFDVEHFVTTIPPLVGMGNYPLKGNWAEGLVVKHAKRGTPGFDPKGLTILKFKCTAFQEISTDRRQGPRVDEMESVRRDSISRSGIQLPALESIIHDPVQLEASKFLLDHICENRLNAVLSKIGTDPFEKQEMTPDDLATLLAKDALKDFLKEAEPAIVNTPILTRRDMARYVLFESRQLVCSRWKAILQRQTADVVE | not soluble
MAHHHHHHMLRRLVSCASPLRLRGCGAAVVLGNGRFASTANASAAPPITTTKAPTYGTVPDIPNLNFLSSPDNLLNTVDGTVDVCEALLKEIPKAKTPQAKHDLIDSTSNVLCLLLDPCEFVRQIHPDENYKRGASLAFQKGYEYMCEVNSRRDLYDVIKELDSQEGRKGLTPESSRTLCS | not soluble
MAHHHHHHMLSGITFEIFLFNFEIYHDFSSPLLFSLAIRIVIACGIPSMTNSSVQQVGCRVTYIWLSGKDSHHDIRSKDRTIYISPDDLEKDPKELLRLDMFPVWNFDGSSTGQAEGLITEIHIKPVNAYHCCIPRASSSVPWIVVLAECFLPTGEPTPDNSRAVARRIFDKGLGTHPWFGMEQEYFLVKDGHPYGWCPTCPPASQGPYYCATGSECIRGRKHVDLHYEVCLQMGLKICGTNAEVAFGQWEFQVGPCEGIEMGDQLVVARWVLLRILELEGLDADFRAKPILGDWNGSGLHTNFSTEATRAPGGLEVIYQYIERLKETSSKDIIFYGVDNNERLIGKHETSKLNETTFGIGTRGTSIRIPTAVAAAQSGYMEDRRPAAGADPYLVSSRLFASCLSVDAVELDFSSPRHEREWMASTSKV | not soluble
MAHHHHHHMLSQNVAKTTVPSYYMIRTNLPQRKPQNQWEGVYYFGGITKRQRHLILLQRKREREARMRAFSASCSNLLRLLEGDTQEQQQAKTQTIQLSSPHGPFDLAIRLAQHGLYQQASRIVDELHQQRALRMSHYGLLIDALSAPCLGQRILYGSAQCDPALTYKLLGDENGEERAQEAHRWFDMAFALLTTECRMSGSEHRLPQATAAATHLVNALMRALLTCGYTHVSAVPDAVYDRMGLMGISPTISTYELVMLALSLQGNMKEAESVFSFLRRHHNEHVTIGSFNALLLGHRECRQFDRCDAIWQELVDRRWPRASTLTAELYLRSIVDHSYTPTSGPLQRFGNINVVEKKKIPLVLAQMDDLGIPRAHLSRPLMDEVEDALRKFHIYKSRYYEWGRAVKQFNFIEFRRRNGWMYDLHLMKNTTKQVGPLRDFNQPDATQAPVATVEIPAFFNERPAWEQPPLEETLYVTESRERYDDVRSGDIYEDRTRSLHDRSPTWMNEVPETRYDHLYGVNHPDIAKIGIRRHLNAEYVNRKEVVERDAALMKKNLSTGRRLRRKVESSRTHRNAGSMSGAAPASASR | not soluble
